Where two headings read alike, the source gives them in different places.
How the values were obtained:
[1] = molecular target: F-actin (Oryctolagus cuniculus) (UniProt P68135); details: cited from earlier work
[2] = molecular target: Filamentous actin (F-actin) (rabbit) (UniProt P68135); test: co-sedimentation; 1–30 μM polymerized actin incubated with 10 μM MYPN Ig3, Ig4 or Ig3–4 domain for 1 h in 100 μL, 150 000×g for 30 min; SDS-PAGE of supernatants and pellets, densitometry; F-buffer (Tris, KCl, MgCl2, DTT, pH 8.0)
[3] = molecular target: F-actin (Oryctolagus cuniculus) (UniProt P68135); details: cited from earlier work; remark: listed apart in the source

Substance: PALLD Ig3-4 (from UniProt Q9ET54)
- Kd [1]: 9 µM

Substance: Myopalladin (MYPN) Ig3 domain (domain or fragment)
- Kd [2]: 7.6 µM

Substance: PALLD Ig3 (from UniProt Q9ET54)
- Kd [3]: 70 µM
